Data as given in PMC4753445.

Target: AKT1 substrate 1 (AKT1S1), Flag-tagged (UniProt Q96B36)
Assay: co-IP; 14-3-3 co-expressed with AKT1S1 (or 2SE) in HEK293T cells, with or without overexpressed PKM2 or PKM2 K270M; 14-3-3 co-immunoprecipitated with AKT1S1 detected by blot

Chain of 14-3-3 (P63104 whole entry): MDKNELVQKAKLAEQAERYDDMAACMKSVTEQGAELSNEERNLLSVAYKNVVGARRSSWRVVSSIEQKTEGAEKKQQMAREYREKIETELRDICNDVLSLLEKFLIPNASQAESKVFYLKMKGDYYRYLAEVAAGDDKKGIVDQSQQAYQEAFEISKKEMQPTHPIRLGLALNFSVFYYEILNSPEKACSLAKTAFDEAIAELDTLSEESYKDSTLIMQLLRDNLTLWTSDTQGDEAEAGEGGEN

- fold increase of the co-precipitate with PKM2 overexpressed against without PKM2: > 3 fold
Substance: 14-3-3 (from UniProt P63104 1-245) (natural protein)
